The experiment has as its target T1, EGFRvIII (Epidermal Growth Factor Receptor Variant III) (human, UniProt P00533 298-1210).
T1 construct: also called Human EFGRvIII; de2-7EGFR
The experiment in a line: IHC staining, titration of the primary antibody (5.5, 2.75, 1.375 µg/ml).

B1: EGFRvIII antibody 1 (antibody, mouse IgG1, kappa, V domains shown)
VH: QVQLVESGGGVVQPGRSLRLSCAASGFTFSSYGMHWVRQAPGKGLEWVAVIWYDGSNKYYVDSVKGRFTISRDNSKNTLYLQMNSLRAEDTAVYYCARDGWQQLAPFDYWGQGTLVTVSA
VL: not shown
notes: also called first antibody; primary antibody
As to B1, the binding result is reported as “binds”.

For the origin of these results see patent publication US20220411516A1 (Amgen, published 2022).
